The target of one assay is T1, hPSPN (human, UniProt O60542 61-156, limits assumed).
T1 sequence (looked up): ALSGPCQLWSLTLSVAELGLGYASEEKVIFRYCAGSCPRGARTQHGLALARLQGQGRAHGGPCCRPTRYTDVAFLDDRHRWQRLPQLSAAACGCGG
In words: SPR; ligand as analyte over immobilised hGFRAL(ECR)-Fab-HPC4. The text has this: (§1) For SPR-based binding assay, wtMIC-1 as well as hGDNF, hNRTN, hARTN and hPSPN, at various concentrations were run as flow-through analytes. hGFRAL(ECR)-Fab and mGFRAL(ECR)-Fab were immobilized as ligand. […] FCRL2-Fab-HPC4 (Ctrl.-Fab-HPC4) was used as control. Please see FIG. 5 and Table 4.
A general note: Surface plasmon resonance follows binding to a sensor surface in real time, without labels.

A further assay deals with T2, hNRTN (human, UniProt Q99748 96-197).
T2 sequence (looked up): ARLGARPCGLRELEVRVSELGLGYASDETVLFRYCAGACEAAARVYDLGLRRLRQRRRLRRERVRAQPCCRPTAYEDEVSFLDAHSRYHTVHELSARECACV
The description is as above.
From the text: as §1

The target of another assay is T3, hARTN (human, UniProt Q5T4W7 108-220).
T3 sequence (looked up): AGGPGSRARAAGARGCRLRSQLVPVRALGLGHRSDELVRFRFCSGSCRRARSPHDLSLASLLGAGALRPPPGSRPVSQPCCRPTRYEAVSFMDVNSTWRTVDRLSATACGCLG
The description is as above.
From the text: as §1

A further assay deals with T4, hGDNF (human, UniProt P39905 78-211).
T4 sequence (looked up): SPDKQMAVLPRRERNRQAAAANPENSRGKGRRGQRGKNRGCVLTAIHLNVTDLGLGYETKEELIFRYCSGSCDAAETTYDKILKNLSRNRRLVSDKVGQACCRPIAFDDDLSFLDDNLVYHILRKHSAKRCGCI
The description is as above.
From the text: as §1

The next assay deals with T5, wild type human MIC-1 (human, UniProt Q99988 197-308).
T5 construct: also called wtMIC-1; hMIC-1
T5 sequence: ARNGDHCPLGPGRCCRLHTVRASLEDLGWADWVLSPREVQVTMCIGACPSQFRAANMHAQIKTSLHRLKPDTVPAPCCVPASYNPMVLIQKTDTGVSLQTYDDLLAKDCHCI
Kind of assay: SPR; GFRAL fragment as analyte over immobilised wtMIC-1; relative to hGFRAL(ECR) set as 100%. As to the method: MIC-1 interactions with soluble GFRAL fragments were assessed by SPR-based binding assay. A Biacore® 4000 (GE Healthcare, Piscataway, N.J., USA) instrument was used for SPR-based binding assay. The assays were performed at 25° C. at flow rates of 30 μL/minute in 1× HBS-P running buffer (BR-1006-71, GE Healthcare, Piscataway, N.J., USA). Purified GFRAL fragments at various concentrations were run as flow-through analyte and wtMIC-1 was immobilized as ligand. Please see FIG. 6 and Table 5.

Results on 1 molecule are retold here after patent US20190025332A1 (Novo Nordisk, published 2019).

B1: hGFRAL(ECR)-Fab-HPC4 (receptor)
chain: QTNNCTYLREQCLRDANGCKHAWRVMEDACNDSDPGDPCKMRNSSYCNLSIQYLVESNFQFKECLCTDDFYCTVNKLLGKKCINKSDNVKEDKFKWNLTTRSHHGFKGMWSCLEVAEACVGDVVCNAQLASYLKACSANGNPCDLKQCQAAIRFFYQNIPFNIAQMLAFCDCAQSDIPCQQSKEALHSKTCAVNMVPPPTCLSVIRSCQNDELCRRHYRTFQSKCWQRVTRKCHEDENCISTLSKQDLTCSGSDDCKAAYIDILGTVLQVQCTCRTITQSEESLCKIFQHMLHRKSCFNYPTLSNVKGMALYTRKHANKITLTGFHSPFNGEGGGGSGGGGSDVVMTQTPLSLPVSLGDQASISCRSSQSLLHSNGNTYLHWYLQKPGQSPKLLIYKVSNRFSGVPDRFSGSGSGTDFTLKISRVEAEDLGVYFCSQSTHVPWTFGGGTKLEIKRADAAPTVSIFPPSSEQLTSGGASVVCFLNNFYPKDINVKWKIDGSERQNGVLNSWTDQDSKDSTYSMSSTLTLTKDEYERHNSYTCEATHKTSTSPIVKSFNRNEC
heavy: EVQIQESGPSLVKPSQTLSLTCSVSGDSITSGYWNWIRKFPGHKIEYMGTISYSGDTYYNPSLKSRISITRDTSKNQYYLHLNSVTTEDTATYYCARYGSYVFDYWGQGTTLTVSSAKTTPPSVYPLAPGSAAQTNSMVTLGCLVKGYFPEPVTVTWNSGSLSSGVHTFPAVLQSDLYTLSSSVTVPSSTWPSETVTCNVAHPASSTKVDKKIVPRDCGGGGSEDQVDPRLIDGK
In the case of B1, the binding result in the assay with hPSPN, with hNRTN, with hARTN and with hGDNF was “no binding” each time. Also, the “% of Binding” value with wild type human MIC-1 was found to be 100%.
